How the values were obtained:
[1] = biological target: T1, Mouse ALK2-His&Fc (Sino Biological Inc., Cat. #50297-M03H) (mouse, UniProt P37172 21-123); assay: ELISA, antigen coated at 1 µg/ml, hybridoma culture supernatant, ALP anti-rat IgG, O.D.492
T1 construct: Bought product; also called mALK2-Fc; not shown: His tag and Fc of the bought product
T1 sequence: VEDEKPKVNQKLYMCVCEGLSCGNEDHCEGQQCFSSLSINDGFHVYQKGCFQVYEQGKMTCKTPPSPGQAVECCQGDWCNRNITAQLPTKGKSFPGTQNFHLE
Description: One week after the cell fusion, using each culture supernatant, clones recognizing mouse ALK2-His&Fc used as the antigen were selected by the enzyme-linked immunosorbent assay (ELISA), and clones recognizing only human Fc (Sino Biological Inc.) were excluded. ELISA was performed as follows.
First, the antigen diluted to 1 μg/ml with PBS was immobilized onto a 96-well ELISA plate (NUNC, Cat. #442404) for 2 hours at room temperature or overnight at 4° C. The immobilized solution was removed, and the plate was blocked with a 0.5% skim milk solution dissolved in PBS for 30 minutes at room temperature. Next, the above-described culture supernatant of hybridomas was added, and the plate was left for 1 hour at room temperature. After the plate was washed, an ALP-labeled anti-rat IgG antibody (SBA, Inc.) diluted with 0.5% skim milk to 1:2500 was added, and the plate was further left for 1 hour at room temperature. After the plate was washed, a phenyl phosphate substrate was reacted for 20 minutes at room temperature, and then absorbance at a wavelength of 492 nm was measured.

[2] = biological target: T2, human ALK2-G356D on cells (human, UniProt Q04771 21-509); assay: immunofluorescence on transfected, formalin-fixed C2C12 cells, IgG at 10 µg/mL, Alexa 594 anti-rat IgG
T2 sequence: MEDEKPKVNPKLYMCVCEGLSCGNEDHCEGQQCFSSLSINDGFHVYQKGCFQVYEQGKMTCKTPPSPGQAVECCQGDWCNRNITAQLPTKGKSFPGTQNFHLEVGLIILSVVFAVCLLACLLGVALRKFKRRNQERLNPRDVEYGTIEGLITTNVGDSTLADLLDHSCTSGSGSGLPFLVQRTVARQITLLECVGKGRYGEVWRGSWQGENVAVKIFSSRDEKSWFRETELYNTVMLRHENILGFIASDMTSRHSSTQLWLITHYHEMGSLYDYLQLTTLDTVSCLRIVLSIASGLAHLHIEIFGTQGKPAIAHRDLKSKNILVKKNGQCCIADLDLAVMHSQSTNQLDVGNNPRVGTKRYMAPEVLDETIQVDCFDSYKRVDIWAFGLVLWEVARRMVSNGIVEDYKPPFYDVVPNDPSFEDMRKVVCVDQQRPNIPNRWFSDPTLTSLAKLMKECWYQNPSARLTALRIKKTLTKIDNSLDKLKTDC
Description: (§1) Mouse C2C12 cells were seeded into a 96-well plate (Greiner Bio-One) at 0.5×10³ cells/well, and cultured in 15% FBS-containing DMEM medium overnight under the conditions of 5% CO₂ at 37° C. On the following day, the C2C12 cells were transfected with each of a wild-type human ALK2 cDNA integrated into pcDEF3; pcDEF3/human ALK2-L196P, pcDEF3/human ALK2-P197_F198delinsL, pcDEF3/human ALK2-R202I, pcDEF3/human ALK2-R206H, pcDEF3/human ALK2-Q207E, pcDEF3/human ALK2-R258S, pcDEF3/human ALK2-G325A, pcDEF3/human ALK2-G328E, pcDEF3/human ALK2-G328R, pcDEF3/human ALK2-G328W, pcDEF3/human ALK2-G356D, and pcDEF3/human ALK2-R375P, which are variants identified in FOP; and pcDEF3 as a control, using Lipofectamine 2000 (Invitrogen), and further cultured overnight.
(§2) The C2C12 cells were fixed with 10% neutral formalin (Nacalai Tesque, Japan) for 20 minutes at room temperature, and then blocked with 10% goat normal serum for 30 minutes. After the blocking agent was removed, purified IgG diluted to 10 μg/mL with the blocking agent was added, and the cells were left for 1 hour at room temperature. After the cells were washed with PBS three times, Goat Alexa 594-conjugated anti-rat IgG (Invitrogen) diluted to 1:1000 with the blocking agent was added, and the cells were left for 1 hour at room temperature. After the cells were washed with PBS three times, the cells were fixed with 10% neutral formalin for 15 minutes at room temperature, and nuclear-stained with DAPI (LifeTechnologies). Fluorescent signals were analyzed with a fluorescence microscope BZ-9000 (Keyence).

[3] = biological target: T3, human ALK2-Q207E on cells (human, UniProt Q04771 21-509); assay: as above
T3 sequence: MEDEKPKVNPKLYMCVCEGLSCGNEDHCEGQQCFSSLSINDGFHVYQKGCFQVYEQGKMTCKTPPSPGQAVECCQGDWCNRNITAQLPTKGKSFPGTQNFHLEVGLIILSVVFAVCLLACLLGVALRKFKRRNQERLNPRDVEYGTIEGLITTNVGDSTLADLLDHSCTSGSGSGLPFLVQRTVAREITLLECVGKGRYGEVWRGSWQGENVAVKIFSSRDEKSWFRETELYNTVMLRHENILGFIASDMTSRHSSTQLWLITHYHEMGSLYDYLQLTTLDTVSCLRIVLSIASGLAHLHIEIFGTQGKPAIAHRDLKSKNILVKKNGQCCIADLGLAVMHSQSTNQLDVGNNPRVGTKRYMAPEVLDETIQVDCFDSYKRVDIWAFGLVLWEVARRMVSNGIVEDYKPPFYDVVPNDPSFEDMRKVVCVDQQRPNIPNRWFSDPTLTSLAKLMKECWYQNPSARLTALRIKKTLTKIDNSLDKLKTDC
Description: as §1, §2

B1: rat anti-ALK2 monoclonal antibody A2-27D (antibody, V domains shown)
VH: EVQLVESGGGLVQPGRSLKLSCLASGSTFSNYGMKWIRQAPGKGLEWVASISRSSTYIYYADTVKGRFTISRDNARNTLYLQMTSLRSEDTALYYCAAAISTPFYWYFDFWGPGTVVTVSS
VL: EIVLTQSPTTMAASPGEKVTLNCLASSSVSYMTWYQQKSGASPKLWIYGTSNLASGVPNRFSGSGSGTSYSLAISSMEAEDVATYYCLHLTSYPPYTFGAGTKLELKR
notes: Rat monoclonal IgG from a hybridoma; also called 27D11
Does B1 bind [1]?
Result: binds

Does B1 bind [2]?
Result: binds

Does B1 bind [3]?
Result: binds

B2: rat anti-ALK2 monoclonal antibody A2-25C (antibody, V domains shown)
VH: EVQLVESGGGLVQPGGSLKLSCAASGFTFSYYAMSWVCQAPTKGLEWVASISRGGDNTYYRDTVKGRFTTSRDNAKNTLYLQMDSLRSEDTATYYCARLNYNNYFDYWGQGVMVTVSS
VL: DIQMTQSPASLSASLEEIVTITCQASQDIGNWLSWYQQKPGKSPQLLIYGATSLADGVPSRFSGSRSGTQYSLKISRLRVEDIGIYYCLQAYSAPFTFGSGTKLEIKR
notes: Rat monoclonal IgG from a hybridoma; also called 25C11
Does B2 bind [1]?
Result: binds

Does B2 bind [2]?
Result: binds

Does B2 bind [3]?
Result: binds

B3: rat anti-ALK2 monoclonal antibody A2-15A (antibody, V domains shown)
VH: EVQLVESGGGLVQPGRSLKLSCAASGFTFSHYYMAWVRQAPTKGLEWVASITNSGGSINYRDSVKGRFTISRDNAKSTLYLQMDSLRSEDTATYYCTREGGENYGGYPPFAYWGQGTLVTVSS
VL: DIVLTQSPALAVSLGQRATISCRANQGVSLSRYNLMHWYQQKPGQKPKLLIYRSSNLASGIPARFSGSGSGTDFTLTINPVQADDIATYYCQQSRESPFTFGAGTKLELKR
notes: Rat monoclonal IgG from a hybridoma; also called 15A6
Does B3 bind [1]?
Result: binds

B4: rat anti-ALK2 monoclonal antibody A2-11E (antibody, V domains shown)
VH: EVQLVETGGGLVQPGRSLKLSCVASGFTFSNYYMYWIRQAPGKGLEWISSINTDGGSTYYPDSVKGRFAISRDNAENTVYLQMNSLRSEDTATYYCAKSTPNIPLAYWGQGTLVTVSS
VL: DIQMTQSPSLLSASVGDRVTLSCKASQNIYKYLNWFQQKLGEAPKLLIYYSNSLQTGIPSRFSGSGSGTDFTLTISSLQPEDVAIYFCFQYSSGPTFGPGTKLELKR
notes: Rat monoclonal IgG from a hybridoma; also called 11E2
Does B4 bind [1]?
Result: binds

Source: patent US20220041738A1 (SAITAMA MEDICAL UNIVERSITY, published 2022)
